Laboratory results reported in publication PMC314469, “Protein Interaction Networks by Proteome Peptide Scanning” (PLoS Biology, 2004).
One block for each binder: values may come before it.

How the values were obtained:
Test in all cases: SPOT array
[1] = molecular target: T1, Rvs167 SH3 (RV167_YEAST), P39743
T1 chain: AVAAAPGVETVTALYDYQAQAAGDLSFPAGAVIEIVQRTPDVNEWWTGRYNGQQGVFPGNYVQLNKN

[2] = molecular target: T2, Myo5 SH3 (MYO5_YEAST), Q04439
T2 chain: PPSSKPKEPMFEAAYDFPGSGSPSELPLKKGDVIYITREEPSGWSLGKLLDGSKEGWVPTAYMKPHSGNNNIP

[3] = molecular target: T3, Yfr024 SH3 (LSB3_YEAST), P43603
T3 chain: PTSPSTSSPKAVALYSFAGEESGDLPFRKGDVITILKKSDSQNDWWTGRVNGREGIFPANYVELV

[4] = molecular target: T4, Boi1 SH3 (BOI1_YEAST), P38041
T4 chain: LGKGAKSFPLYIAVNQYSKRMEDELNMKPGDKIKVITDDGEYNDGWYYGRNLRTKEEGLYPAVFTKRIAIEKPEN

[5] = molecular target: T5, Boi2 SH3 (BOI2_YEAST), P39969
T5 chain: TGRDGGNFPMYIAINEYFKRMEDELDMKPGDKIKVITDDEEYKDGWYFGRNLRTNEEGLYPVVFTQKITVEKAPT

[6] = molecular target: Sho1 SH3 (SHO1_YEAST), P40073
Sequence of Sho1 SH3 (SHO1_YEAST), P40073 (P40073 295-366): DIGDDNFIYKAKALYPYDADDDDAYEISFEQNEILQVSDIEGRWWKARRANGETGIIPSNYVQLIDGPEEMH

[7] = molecular target: T6, Yhr016c SH3 (YSC84_YEAST), P32793
T6 chain: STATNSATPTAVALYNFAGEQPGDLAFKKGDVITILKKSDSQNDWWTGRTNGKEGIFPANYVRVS

B1: YMR179W 684-697 (peptide)
chain: LKKQKAIPSSPSGM
- normalised SPOT signal, Boehringer light units (BLU); mean over the file's lines of this peptide [1]: 35.2
- normalised SPOT signal, Boehringer light units (BLU); mean over the file's lines of this peptide [2]: 307
- normalised SPOT signal, Boehringer light units (BLU); mean over the file's lines of this peptide [3]: 255
- normalised SPOT signal, Boehringer light units (BLU); mean over the file's lines of this peptide [4]: 711
- normalised SPOT signal, Boehringer light units (BLU); mean over the file's lines of this peptide [5]: 16.1
- normalised SPOT signal, Boehringer light units (BLU); mean over the file's lines of this peptide [6]: 204
- normalised SPOT signal, Boehringer light units (BLU); mean over the file's lines of this peptide [7]: 32.4

B3: YBR055C 407-420 (peptide)
chain: LLEERNNPDIPVDK
- normalised SPOT signal, Boehringer light units (BLU); mean over the file's lines of this peptide [1]: 38.3
- normalised SPOT signal, Boehringer light units (BLU); mean over the file's lines of this peptide [2]: 312
- normalised SPOT signal, Boehringer light units (BLU); mean over the file's lines of this peptide [3]: 38.8
- normalised SPOT signal, Boehringer light units (BLU); mean over the file's lines of this peptide [4]: 85.4
- normalised SPOT signal, Boehringer light units (BLU); mean over the file's lines of this peptide [5]: 19.6
- normalised SPOT signal, Boehringer light units (BLU); mean over the file's lines of this peptide [6]: 26.1
- normalised SPOT signal, Boehringer light units (BLU); mean over the file's lines of this peptide [7]: 19.5

B4: YLR214W 271-284 (peptide)
chain: LFGIRNNPFIPITG
- normalised SPOT signal, Boehringer light units (BLU); mean over the file's lines of this peptide [1]: 139
- normalised SPOT signal, Boehringer light units (BLU); mean over the file's lines of this peptide [2]: 170
- normalised SPOT signal, Boehringer light units (BLU); mean over the file's lines of this peptide [3]: 342
- normalised SPOT signal, Boehringer light units (BLU); mean over the file's lines of this peptide [4]: 281
- normalised SPOT signal, Boehringer light units (BLU); mean over the file's lines of this peptide [5]: 25.5
- normalised SPOT signal, Boehringer light units (BLU); mean over the file's lines of this peptide [6]: 15.8
- normalised SPOT signal, Boehringer light units (BLU); mean over the file's lines of this peptide [7]: 426

B8: YKL196C 79-92 (peptide)
chain: LITDKEYPVRPAYT
- normalised SPOT signal, Boehringer light units (BLU); mean over the file's lines of this peptide [1]: 17.5
- normalised SPOT signal, Boehringer light units (BLU); mean over the file's lines of this peptide [2]: 136
- normalised SPOT signal, Boehringer light units (BLU); mean over the file's lines of this peptide [3]: 126
- normalised SPOT signal, Boehringer light units (BLU); mean over the file's lines of this peptide [4]: 139
- normalised SPOT signal, Boehringer light units (BLU); mean over the file's lines of this peptide [5]: 21.9
- normalised SPOT signal, Boehringer light units (BLU); mean over the file's lines of this peptide [6]: 7.7
- normalised SPOT signal, Boehringer light units (BLU); mean over the file's lines of this peptide [7]: 19.3

B9: YBL005W-B 1591-1604 (peptide)
chain: LIWHKSKPVKPTNK
- normalised SPOT signal, Boehringer light units (BLU); mean over the file's lines of this peptide [1]: 71.9
- normalised SPOT signal, Boehringer light units (BLU); mean over the file's lines of this peptide [2]: 354
- normalised SPOT signal, Boehringer light units (BLU); mean over the file's lines of this peptide [3]: 1320
- normalised SPOT signal, Boehringer light units (BLU); mean over the file's lines of this peptide [4]: 139
- normalised SPOT signal, Boehringer light units (BLU); mean over the file's lines of this peptide [5]: 30.5
- normalised SPOT signal, Boehringer light units (BLU); mean over the file's lines of this peptide [6]: 106
- normalised SPOT signal, Boehringer light units (BLU); mean over the file's lines of this peptide [7]: 73

B11: YDL197C 382-395 (peptide)
chain: LGSEKSSPLAPAVA
- normalised SPOT signal, Boehringer light units (BLU); mean over the file's lines of this peptide [1]: 64.8
- normalised SPOT signal, Boehringer light units (BLU); mean over the file's lines of this peptide [2]: 122
- normalised SPOT signal, Boehringer light units (BLU); mean over the file's lines of this peptide [3]: 21.4
- normalised SPOT signal, Boehringer light units (BLU); mean over the file's lines of this peptide [4]: 72.6
- normalised SPOT signal, Boehringer light units (BLU); mean over the file's lines of this peptide [5]: 52.5
- normalised SPOT signal, Boehringer light units (BLU); mean over the file's lines of this peptide [6]: 11.2
- normalised SPOT signal, Boehringer light units (BLU); mean over the file's lines of this peptide [7]: 26.8

The remaining lines, values ahead:

- normalised SPOT signal, Boehringer light units (BLU); mean over the file's lines of this peptide [1]: 28.2
- normalised SPOT signal, Boehringer light units (BLU); mean over the file's lines of this peptide [2]: 154
- normalised SPOT signal, Boehringer light units (BLU); mean over the file's lines of this peptide [3]: 12.7
- normalised SPOT signal, Boehringer light units (BLU); mean over the file's lines of this peptide [4]: 15.5
- normalised SPOT signal, Boehringer light units (BLU); mean over the file's lines of this peptide [5]: 47.9
- normalised SPOT signal, Boehringer light units (BLU); mean over the file's lines of this peptide [6]: 36
- normalised SPOT signal, Boehringer light units (BLU); mean over the file's lines of this peptide [7]: 2
B2: YNL231C 198-211 (peptide)
chain: LIDFKDYPDVPKVP

- normalised SPOT signal, Boehringer light units (BLU); mean over the file's lines of this peptide [1]: 39.5
- normalised SPOT signal, Boehringer light units (BLU); mean over the file's lines of this peptide [2]: 406
- normalised SPOT signal, Boehringer light units (BLU); mean over the file's lines of this peptide [3]: 47.5
- normalised SPOT signal, Boehringer light units (BLU); mean over the file's lines of this peptide [4]: 1870
- normalised SPOT signal, Boehringer light units (BLU); mean over the file's lines of this peptide [5]: 25.8
- normalised SPOT signal, Boehringer light units (BLU); mean over the file's lines of this peptide [6]: 45.5
- normalised SPOT signal, Boehringer light units (BLU); mean over the file's lines of this peptide [7]: 16.8
B5: YGL131C 1018-1031 (peptide)
chain: LKHTKNKPKNPDTA

- normalised SPOT signal, Boehringer light units (BLU); mean over the file's lines of this peptide [1]: 16.5
- normalised SPOT signal, Boehringer light units (BLU); mean over the file's lines of this peptide [2]: 168
- normalised SPOT signal, Boehringer light units (BLU); mean over the file's lines of this peptide [3]: 49
- normalised SPOT signal, Boehringer light units (BLU); mean over the file's lines of this peptide [4]: 180
- normalised SPOT signal, Boehringer light units (BLU); mean over the file's lines of this peptide [5]: 15.1
- normalised SPOT signal, Boehringer light units (BLU); mean over the file's lines of this peptide [6]: 10800
- normalised SPOT signal, Boehringer light units (BLU); mean over the file's lines of this peptide [7]: 44.6
B6: YOR336W 752-765 (peptide)
chain: LGLHKWLPDIPLFE

- normalised SPOT signal, Boehringer light units (BLU); mean over the file's lines of this peptide [1]: 81.1
- normalised SPOT signal, Boehringer light units (BLU); mean over the file's lines of this peptide [2]: 428
- normalised SPOT signal, Boehringer light units (BLU); mean over the file's lines of this peptide [3]: 213
- normalised SPOT signal, Boehringer light units (BLU); mean over the file's lines of this peptide [4]: 133
- normalised SPOT signal, Boehringer light units (BLU); mean over the file's lines of this peptide [5]: 71.6
- normalised SPOT signal, Boehringer light units (BLU); mean over the file's lines of this peptide [6]: 227
- normalised SPOT signal, Boehringer light units (BLU); mean over the file's lines of this peptide [7]: 150
B7: YJL176C 589-602 (peptide)
chain: LGPLKYAPHLPFSK

- normalised SPOT signal, Boehringer light units (BLU); mean over the file's lines of this peptide [1]: 144
- normalised SPOT signal, Boehringer light units (BLU); mean over the file's lines of this peptide [2]: 518
- normalised SPOT signal, Boehringer light units (BLU); mean over the file's lines of this peptide [3]: 3640
- normalised SPOT signal, Boehringer light units (BLU); mean over the file's lines of this peptide [4]: 152
- normalised SPOT signal, Boehringer light units (BLU); mean over the file's lines of this peptide [5]: 21.8
- normalised SPOT signal, Boehringer light units (BLU); mean over the file's lines of this peptide [6]: 350
- normalised SPOT signal, Boehringer light units (BLU); mean over the file's lines of this peptide [7]: 488
B10: YIL047C 206-219 (peptide)
chain: LKDNRLLPSWPKRG

- normalised SPOT signal, Boehringer light units (BLU); mean over the file's lines of this peptide [1]: 85.3
- normalised SPOT signal, Boehringer light units (BLU); mean over the file's lines of this peptide [2]: 300
- normalised SPOT signal, Boehringer light units (BLU); mean over the file's lines of this peptide [3]: 862
- normalised SPOT signal, Boehringer light units (BLU); mean over the file's lines of this peptide [4]: 268
- normalised SPOT signal, Boehringer light units (BLU); mean over the file's lines of this peptide [5]: 27.9
- normalised SPOT signal, Boehringer light units (BLU); mean over the file's lines of this peptide [6]: 106
- normalised SPOT signal, Boehringer light units (BLU); mean over the file's lines of this peptide [7]: 71.1
B12: YBL101W-B 1606-1619 (peptide)
chain: LIWHKNKPTKPDNK

- normalised SPOT signal, Boehringer light units (BLU); mean over the file's lines of this peptide [1]: 102
- normalised SPOT signal, Boehringer light units (BLU); mean over the file's lines of this peptide [2]: 155
- normalised SPOT signal, Boehringer light units (BLU); mean over the file's lines of this peptide [3]: 587
- normalised SPOT signal, Boehringer light units (BLU); mean over the file's lines of this peptide [4]: 120
- normalised SPOT signal, Boehringer light units (BLU); mean over the file's lines of this peptide [5]: 29.2
- normalised SPOT signal, Boehringer light units (BLU); mean over the file's lines of this peptide [6]: 82.2
- normalised SPOT signal, Boehringer light units (BLU); mean over the file's lines of this peptide [7]: 94.9
B13: YAR009C 1032-1045 (peptide)
chain: LIWHKNKPTEPDNK
